Assay [1] has as its target T1, human TMEM106B (human, UniProt Q9NUM4 2-274).
T1 construct: full-length, transiently expressed on HEK293 cells, or natively expressed on HeLa, U251 and A549 cells (the cell is named under assay); also the source of the Pepscan peptides; also called huTMEM106B; huTMEM
Description: FACS HeLa.
Description: (§1) All cells were cultured in either T75 or T150 flasks. […] The enzyme was quenched by addition of fresh media, and the cells were then distributed into 96-well plates for FACS analysis.
(§2) FACS analysis was performed as follows. Each cell type was aliquoted in 96-well round bottom plates (2×10^5 cells per well), washed once with FACS buffer (PBS+2% FBS+1 mM EDTA), and incubated with 50 μL of hybridoma supernatant or purified antibody (10 μg/ml in FACS buffer) on ice for 1 hour. […] Following this secondary incubation, the cells were again washed 2× with ice-cold FACS buffer and resuspended in a final volume of 50 μL of FACS buffer+0.25 μl/well propidium iodide (Fisher Scientific #4BDB556463). Analysis was performed on a FACSCanto system (BD Biosciences) or iQue (Intellicyt), with sort gates drawn to exclude dead (i.e., propidium iodide positive) cells.

Assay [2] addresses T1, human TMEM106B. Put plainly: FACS A549.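 Also: flow cytometry of cells incubated on ice for 1 h with hybridoma supernatant or purified antibody at 10 µg/mL, dead propidium iodide-positive cells gated out.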
Assay [3] has as its target T1, human TMEM106B. Put plainly: FACS HEK+huTMEM 0.1 ug/ml.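 Also: flow cytometry binding of purified mouse IgG antibodies to HEK293 cells transiently expressing TMEM106B, read as median fluorescence intensity on live cells (propidium iodide negative gating).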
Assay [4] addresses T1, human TMEM106B. Put plainly: FACS A549 1 ug/ml.
The next assay has as its target T2, mouse TMEM106B (mouse, UniProt Q80X71 2-275).
T2 construct: transiently expressed on HEK293 cells, or native on mouse Neuro2a cells; also called moTMEM106B; murine TMEM106B
Description: FACS Neuro2a.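 Also: flow cytometry of antibody binding to cells: hybridoma supernatant or purified antibody at 10 µg/ml, 1 h on ice, secondary detection, propidium iodide–positive dead cells gated out.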

For assay [5], the target named is T1, human TMEM106B. Put plainly: FACS U251.
Description: as §1, §2
Assay [6] concerns the target T1, human TMEM106B. Put plainly: FACS HEK+huTMEM 10 ug/ml.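 Also: flow cytometric binding of purified mouse IgG antibodies to HEK293 cells transiently expressing human TMEM106B, read as median fluorescence intensity on live cells with propidium iodide-positive cells excluded.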
For assay [7], the target named is T1, human TMEM106B. Put plainly: FACS HEK+huTMEM 0.1 ug/ml (2nd column so headed).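 Also: flow cytometry binding of purified anti-TMEM106B mouse IgG to HEK293 cells transiently transfected with TMEM106B, read as median fluorescence intensity on live (propidium iodide-negative) cells.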
Description: (§3) Purified anti-TMEM106B antibodies were evaluated for their binding affinity to various TMEM106B-expressing cell lines including HEK293 transiently transfected with human/cyno/mouse TMEM106B, as well as HeLa cells and A549 cells. Antibodies tested for this experiment were mouse IgGs purified from hybridoma supernatant. Affinity binding to cells was determined as follows. Briefly, 1×10\hat{ }5 cells were aliquoted per well in 96-well round bottom plates and incubated with 50 μL of purified anti-TMEM106B antibody at various concentrations (10× dilutions starting at 10 μg/ml) in FACS buffer (PBS+2% FBS+1 mM EDTA). […] Sorting was performed on a iQue (Intellicyt), with sort gates drawn to exclude dead (propidium iodide+) cells. Binding data was analyzed using median fluorescent intensity (MFI) and graphed in Prism. Values presented are MFI.
The target of assay [8] is T1, human TMEM106B. Put plainly: FACS A549 10 ug/ml.
In assay [9] the target is T1, human TMEM106B. Put plainly: FACS HEK+huTMEM 1.0 ug/ml.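 Also: binding of purified mouse IgG antibodies to HEK293 cells transiently expressing human TMEM106B, read by flow cytometry as median fluorescence intensity of live, propidium iodide-negative cells.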
Description: as §3

Description for mouse TMEM106B: as §1, §2

B1: TM-42 (antibody, V domains shown)
VH: QVQLQQSGAELAKPGASVKLSCKASGYTFTNYWMHWVKKRPGQGLEWIGYINPSSGYTKYNQKFKDKATLTADKSSNTAYMQLSSLTYEDSAVYYCTREGGSISDWYFDVWGTGTTVTVSS
VL: DIVMTQAAPSLPVTPGESVSISCRSSKSLLHSNGNTYLYWFLQRPGQSPQLLIYRMSNLASGVPDRFSGSGSGTAFTLRISRVEAEDVGVYYCMQHLEYPYTFGGGTKLEIK
Turning to B1, the MFI with human TMEM106B [1] was found to be 215 MFI; with human TMEM106B [2] it was 947 MFI; with human TMEM106B [3], 16700 MFI; in the assay with human TMEM106B [4], 1780 MFI; with mouse TMEM106B it was 237 MFI; with human TMEM106B [5], 326 MFI. In addition, the MFI with human TMEM106B [6] came to 60100 MFI; with human TMEM106B [7] it was 2070 MFI; with human TMEM106B [8], 3300 MFI; in the assay with human TMEM106B [9] it was 58100 MFI.

B2: TM-45 (antibody, V domains shown)
VH: QVQLQQSGAELAKPGASVKLSCKASGYTFTNYWMHWVKKRPGQGLEWIGYINPSSGYTKYNQKFKDKATLTADKSSNTAYMQLSSLTYEDSAVYYCTREGGSISDWYFDVWGTGTTVTVSS
VL: DIVMTQAAPSLPVTPGESVSISCRSSKSLLHSNGNTYLYWFLQRPGQSPQLLIYRMSNLASGVPDRFSGSGSGTAFTLRISRVEAEDVGVYYCMQHLEYPYTFGGGTKLEIK
With B2, the MFI with human TMEM106B [1] worked out at 191 MFI; with human TMEM106B [2] it was 819 MFI; with human TMEM106B [3], 21300 MFI; with human TMEM106B [4], 1860 MFI; with mouse TMEM106B, 187 MFI; with human TMEM106B [5], 517 MFI. In addition, the MFI with human TMEM106B [6] was determined as 58100 MFI; with human TMEM106B [7], 2500 MFI; with human TMEM106B [8], 3240 MFI; with human TMEM106B [9] it was 57600 MFI.

B3: TM-37 (antibody, V domains shown)
VH: QVQLQQSGAELAKPGASVKLSCKASGYTFTSYWMHWVKQRPGQGLEWIGYVNPSSGYTKNNQKFKDKVTLTADKSSSTAYMQLSSLTYEDSAVYYCAREGGSISDWYFDVWGTGTTVTVSS
VL: DIVMTQAAPSVPVTPGESVSISCRSSKSLLHSNGNTYSYWFLQRPGQSPQLLIYRMSNLASGVPDRFSGSGSGTAFTLRISRVEAEDVGVYYCMQHLEYPYTFGGGTKLEIK
For the molecule B3, the MFI was 254 MFI in the assay with human TMEM106B [1]; 1040 MFI in the assay with human TMEM106B [2]; 29400 MFI in the assay with human TMEM106B [3]; 2980 MFI with human TMEM106B [4]; 208 MFI with mouse TMEM106B; 408 MFI with human TMEM106B [5]. The MFI turned out to be 50500 MFI with human TMEM106B [6], 3920 MFI with human TMEM106B [7], 4210 MFI in the assay with human TMEM106B [8] and 58700 MFI with human TMEM106B [9].

B4: TM-44 (antibody, V domains shown)
VH: EVQLVESGGGLVKPGGSLKLSCAASGFTFSDYGMHWVRQAPEKGLEWVAYISSGSSTIYYADTVKGRFTISRDNAKNTLFLQMTSLRSEDTAMYYCARNYGSPYAMDYWGQGTSVTVSS
VL: not shown
notes: mouse IgG (hybridoma)
For the molecule B4, the MFI was 168 MFI in the assay with human TMEM106B [1]; 392 MFI in the assay with human TMEM106B [2]; 309 MFI in the assay with human TMEM106B [3]; 404 MFI with human TMEM106B [4]; 202 MFI with mouse TMEM106B; 522 MFI in the assay with human TMEM106B [5]. Moreover, the MFI with human TMEM106B [6] came to 512 MFI; with human TMEM106B [7], 300 MFI; in the assay with human TMEM106B [8], 466 MFI; in the assay with human TMEM106B [9], 337 MFI.

B5: TM-29 (antibody, V domains shown)
VH: QVQLRQSGAELVRPGASVKLSCKASGYTFTDYYINWVKQRPGQGLEWIARIYPGSGYTYYNEKFKGKATLTAEGSSNTAYMQLSSLTSEDSAVYFCANHYTNPFAYWGQGTLVTVSA
VL: DIVMTQAAFSNPVTLGTSASISCRSSKSLLHYNGITYLYWYLQKPGQSPQLLIYQMSNLASGVPDRFSSSGSGTDFTLRISRVEAEDVGVYYCAQNLELPYTFGGGTKLEIK
Regarding B5, the MFI came to 1650 MFI with human TMEM106B [1]; 1410 MFI in the assay with human TMEM106B [2]; 24400 MFI with human TMEM106B [3]; 2480 MFI with human TMEM106B [4]; 1480 MFI in the assay with mouse TMEM106B; 730 MFI in the assay with human TMEM106B [5]. Besides, the MFI with human TMEM106B [6] was 61200 MFI; with human TMEM106B [7], 4050 MFI; with human TMEM106B [8], 4200 MFI; in the assay with human TMEM106B [9], 63300 MFI.

B6: TM-28 (antibody, V domains shown)
VH: EVQLQQSGPVLVKPGPSVKISCMASVFTFNDYYIHWVKQSHGKSLEWIGLVYPYNGGTNYNQNFKGKATLTVDTSSRTAYMELNSLTSEDSAVYYCARSYFSNPIGYWGQGTLVTVSE
VL: DIVMTQSPSSLSVSVGEKVTVSCKSSQSLLNSGNQKNYLAWYQQKPGQPPKLLIYGASTRESGVPDRFTGSGSGTDFTLTISSVQAEDLAVYYCQNDHSYPLTFGAGTKLELK
On to B6, for which the MFI in the assay with human TMEM106B [1] came to 2790 MFI; with human TMEM106B [2], 2000 MFI; in the assay with human TMEM106B [3], 19800 MFI; with human TMEM106B [4], 2630 MFI; with mouse TMEM106B, 2740 MFI; in the assay with human TMEM106B [5], 998 MFI. Moreover, the MFI in the assay with human TMEM106B [6] was found to be 64800 MFI; in the assay with human TMEM106B [7], 3340 MFI; with human TMEM106B [8] it was 4350 MFI; with human TMEM106B [9], 66400 MFI.

B7: TM-27 (antibody, V domains shown)
VH: QVQLQQSGAELVRPGTSVKVSCKASGYALTNYLIEWVKQRPGQGLEWIGVINPGSGSTKYNEKFKGKATLTADKSSSTAYMQLSSLTSEDSAVYFCARIIYDHDWYFDVWGTGTTVTVSS
VL: QIVLTQSPAIMSASPGEKVTISCSASSSISYMYWYQQKPGSSPKPWIYRTSTLASGVPARFSGSGSGTSYSLTISSMEAEDAATYYCQQYHSYPRTFGGGTKLEIK
For B7, the MFI in the assay with human TMEM106B [1] amounted to 2960 MFI; with human TMEM106B [2], 1930 MFI; in the assay with human TMEM106B [3] it was 1700 MFI; with human TMEM106B [4] it was 431 MFI; with mouse TMEM106B, 1580 MFI; with human TMEM106B [5], 1320 MFI. Further, the MFI with human TMEM106B [6] was found to be 4140 MFI; in the assay with human TMEM106B [7] it was 744 MFI; with human TMEM106B [8], 622 MFI; with human TMEM106B [9] it was 3040 MFI.

B8: TM-49 (antibody, V domains shown)
VH: QVQLQQPGAELVRPGSSVKLSCKASGYTFTRFWMHWVKQRPIQGLEWIGNIDPSDSQTHYNQKFKDKATLTVDKSSSTAYMQLSSLTSEDSAVYYCARLITVDYAMDYWGQGTSVTVSS
VL: QIVLTQSPAIMSASPGEKVTISCSASSSVSYMYWYQQKPGSSPKPWIHRTSNLASGVPVRFSGSGSGTSYSLTISSMEAEDAATYYCQQYHSYPPTFGAGTKLELK
notes: mouse IgG (hybridoma)
In the case of B8, the MFI was determined as 187 MFI with human TMEM106B [1]; 924 MFI with human TMEM106B [2]; 3030 MFI with human TMEM106B [3]; 473 MFI with human TMEM106B [4]; 291 MFI with mouse TMEM106B; 434 MFI with human TMEM106B [5]. For the same molecule, the MFI was 16500 MFI with human TMEM106B [6], 756 MFI with human TMEM106B [7], 613 MFI with human TMEM106B [8] and 15700 MFI with human TMEM106B [9].

B9: TM-35 (antibody, V domains shown)
VH: QVQLQQSGPELVRPGTSVKISCKAPGYTFTRHWMQWVRQRPGQGLEWIGEILPGSNNIYYNEKVKGKATLTVDTSSSTSYMQLSSLTSEDSAVYFCARSLYDYDGVFAYWGQGTLVTVSA
VL: DVLMTQIPLSLPVSLGDQASISCRSSQSIVHRNGNTYLEWYLQKPGQSPKLLIYKVSNRFSGVPDRFSGSGSGTDFTLKISRVEAEDLGVYYCFQGSHVPYTFGGGTKLEIK
Regarding B9, the MFI was found to be 241 MFI with human TMEM106B [1]; 982 MFI with human TMEM106B [2]; 22600 MFI with human TMEM106B [3]; 3270 MFI with human TMEM106B [4]; 181 MFI with mouse TMEM106B; 370 MFI with human TMEM106B [5]. Besides, the MFI with human TMEM106B [6] stood at 48700 MFI; with human TMEM106B [7], 4080 MFI; with human TMEM106B [8], 4200 MFI; in the assay with human TMEM106B [9] it was 55400 MFI.

B10: TM-48 (antibody, V domains shown)
VH: QVQLQQSGPELVKPGASVKLSCKASGYTFTSYDINWVKQRPGQGLEWIGWIYPRDGNTQYIEKLKGKATLTVDTSSSTAYMELHSLTSEDSAVYFCARWIFYAMDYWGQGTSVTVSS
VL: DVLMTQTPLSLPVSLGNQASISCRSSQSIVHGNGNTYLEWYLQKPGQSPKLLIYKVSNRFSGVPDRFSGSGSGTDFTLKISRVEAEDLGVYYCFQGSHLPYTFGGGTKLEIK
Take B10: the MFI was 219 MFI in the assay with human TMEM106B [1]; 677 MFI with human TMEM106B [2]; 21600 MFI with human TMEM106B [3]; 1580 MFI in the assay with human TMEM106B [4]; 292 MFI in the assay with mouse TMEM106B; 346 MFI with human TMEM106B [5]. Also, the MFI with human TMEM106B [6] was found to be 38200 MFI; with human TMEM106B [7] it was 4050 MFI; in the assay with human TMEM106B [8], 2450 MFI; with human TMEM106B [9] it was 39900 MFI.

B11: TM-33 (antibody, V domains shown)
VH: EFQLQQSGPELVKPGASVKISCKASGYSFTDYNMNWVKQSNGKSLEWIGVINPNYGTTSYNQKFKGKATLTVDQSSSTAYMQLNSLTSEDSAVYYCASSYWGQGTLVTVSA
VL: DIVMTQSQKFMSTTVGDRVSITCKASQNVGTAVAWYQQKPGQSPKLLIYSASNRYTGVPDRFTGSGSGTDFTLTISNMQSEDLADYFCQQYSSYPYTFGGGTKLEIK
notes: mouse IgG (hybridoma)
On to B11, for which the MFI with human TMEM106B [1] was determined as 148 MFI; with human TMEM106B [2], 298 MFI; with human TMEM106B [3], 1750 MFI; with human TMEM106B [4], 366 MFI; with mouse TMEM106B, 233 MFI; in the assay with human TMEM106B [5] it was 202 MFI. In addition, the MFI is 12100 MFI with human TMEM106B [6], 651 MFI with human TMEM106B [7], 514 MFI with human TMEM106B [8] and 5630 MFI in the assay with human TMEM106B [9].

For the origin of these results see patent publication US20200339680A1 (Alector, published 2020).
